According to patent US11466286B2, “Methods and compositions for conferring and/or enhancing herbicide tolerance using protoporphyrinogen oxidase or variant thereof” (FarmHannong Co., Ltd., priority 2016, dated 2022):

Columns and labels:
[1] = test system: PPO-deficient BT3 E. coli (ΔPPO); assay: Herbicide tolerance of PPO-deficient BT3 E. coli transformed with CyPPO10/CyPPO13 wild type or mutant genes on herbicide-containing LB agar; type: cell-based; design: key: the level of herbicide tolerance of the wild type was represented by “−”; if higher, adding “+” to the max “+++++”; if higher, adding “+” to the max “+++++”; if higher, adding “+” to the max “+++++”; if higher, adding “+” to the max “+++++”; if higher, adding “+” to the max “+++++”; details: BT3 E. coli with CyPPO13 gene; relative to CyPPO13 wild type
Source text: In order to enhance PPO-inhibiting herbicide tolerance of CyPPO10 and CyPPO13, the amino acids interacting with herbicide, as identified in the Example 3, were mutated. After PPO-deficient BT3 E. coli (ΔPPO) was transformed with a PPO gene having such mutation, and then cultured with PPO-inhibiting herbicide, to observe the growth of transformed E. coli, as follows:
The pET303-CyPPO10 or pET303-CyPPO13 plasmids prepared in the Example 4, and plasmids containing each mutant gene, were transformed into BT3 competent cell by a heat shock method, and cultured in a LB agar medium containing ampicillin (100 μg/ml).
For seed culture of BT3 transformants, a single colony thereof was cultured in 3 ml of LB broth (LPSS) containing ampicillin for 12 hours or more, and 50˜100 μl of the cultured solution was further cultured until absorbance (OD600) reaches 0.5 to 1. Then, the obtained cultured solution was diluted with LB broth to adjust absorbance (OD600) to 0.5, and was diluted again 5 times by a factor of one tenth with LB broth.
LB (25 g/L), Bacto agar (12 g/L), ampicillin (100 μg/ml) and various herbicides (0˜200 μM) were mixed, to prepare herbicide-containing media.
Ten microliters of the diluted solution were dropped on the herbicide-containing media, and the media were incubated with light for 16-20 hours at 37° C. The growth level and PPO-inhibiting herbicide tolerance of BT3 transformed with each gene were evaluated.
The herbicide tolerance was evaluated relatively compared to CyPPO wild type, and shown in following Tables 8 to 11 and FIGS. 11 to 29:
In the Tables 8 to 11, the level of herbicide tolerance of the wild type was represented by “−”, and the level of herbicide tolerance was graduated by representing the equal level of tolerance by “−”, and if higher, adding “+” to the max “+++++”.
FIGS. 11 to 19 (wild type and variants of CyPPO10) and FIGS. 20 to 29 (wild type and variants of CyPPO13) show the results of culturing E. coli transformed with CyPPO genes (wild type and variant type), and the concentration described on the top is concentration of herbicide treated. Six columns of each concentration were sequentially diluted 5 times by a factor of one tenth with the E. coli culture solution to the right, and the most left column is the result of E. coli culture solution OD600=0.5.

[2] = test system: CyPPO13; assay: PPO enzyme activity and IC50 by herbicides, CyPPO13 wild type and variants (MBP-PPO fusion); type: biochemical, Synechococcus sp. JA-3-3Ab; details: PPO enzyme activity of CyPPO13 protein, wild type = 100
Procedure, shortened: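 Activity was read as protoporphyrin IX fluorescence (405/633 nm), calibrated with a protoporphyrin IX standard curve, after 30 min at room temperature with 50 μM substrate under mineral oil. The buffer was 50 mM Tris-Cl pH 8.0 with glucose oxidase/catalase and a 30 min preincubation. Enzymes were purified MBP-PPO fusions of CyPPO10 or CyPPO13, wild type and variants, expressed in E. coli.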

Row | Molecule | Herbicide tolerance level, Acifluorfen (up to 200 μM) [1] | Herbicide tolerance level, Fomesafen (up to 200 μM) [1] | Herbicide tolerance level, Pyraclonil (up to 200 μM) [1] | Herbicide tolerance level, Pyraflufen-ethyl (up to 200 μM) [1] | Herbicide tolerance level, Sulfentrazone (up to 200 μM) [1] | Activity (%) [2]
1 | CyPPO13 P316A + V318L: CyPPO13 (SEQ ID NO: 4) PPO variant (protein, Synthetic CyPPO13) MNPATPEPLNAEVVVIGAGISGLTLAWRLQQGLSARGGSPQAVLLAEASSRVGGCISTQSKDGYRWEEGPNSFTPTPALLNLIAEVGLTDQLVLADAKLPRYIYWEGALLPVPLSPAAALGSRLLSVGGKLRALQGLLGFVPPPPGHEETVRQFFRRQLGSEVAERLVEPFTSGVYAGDPDQLSAVAAFPRVAGLEERYGSLFAGALQALRQRPQPSPAAIQPPPKRGQLGNLRQGLQQLPEALAQKLGDSLRLGWRALQLKRAGELYWVGFETPEGSRWVAARQVVLALPAYEAAALLQELNPPASQLLAEILYAPLAVVALAYPQEALPQPLRGFGHLIPRSQGLRTLGTIWASCLFPERAPQGYHSFLSFLGGATDAALARRRGIPPIPALSPEERAQIAHAELSQVLLTRRAEPVYLGERLWPRAIPQYTLGHRQRIAQVQAHLASQTPGIWVCANYLDGVALGDCVRRAEALAQQLLSQV | +++ | − | − | + | − | 
2 | CyPPO13 E340T: CyPPO13 (SEQ ID NO: 4) PPO variant, printed E340T, probably L340T (protein, Synthetic CyPPO13) MNPATPEPLNAEVVVIGAGISGLTLAWRLQQGLSARGGSPQAVLLAEASSRVGGCISTQSKDGYRWEEGPNSFTPTPALLNLIAEVGLTDQLVLADAKLPRYIYWEGALLPVPLSPAAALGSRLLSVGGKLRALQGLLGFVPPPPGHEETVRQFFRRQLGSEVAERLVEPFTSGVYAGDPDQLSAVAAFPRVAGLEERYGSLFAGALQALRQRPQPSPAAIQPPPKRGQLGNLRQGLQQLPEALAQKLGDSLRLGWRALQLKRAGELYWVGFETPEGSRWVAARQVVLALPAYEAAALLQELNPPASQLLAEILYPPVAVVALAYPQEALPQPLRGFGHTIPRSQGLRTLGTIWASCLFPERAPQGYHSFLSFLGGATDAALARRRGIPPIPALSPEERAQIAHAELSQVLLTRRAEPVYLGERLWPRAIPQYTLGHRQRIAQVQAHLASQTPGIWVCANYLDGVALGDCVRRAEALAQQLLSQV |  |  |  |  |  | 83%
3 | CyPPO13 V318M: CyPPO13 (SEQ ID NO: 4) PPO variant (protein, Synthetic CyPPO13) MNPATPEPLNAEVVVIGAGISGLTLAWRLQQGLSARGGSPQAVLLAEASSRVGGCISTQSKDGYRWEEGPNSFTPTPALLNLIAEVGLTDQLVLADAKLPRYIYWEGALLPVPLSPAAALGSRLLSVGGKLRALQGLLGFVPPPPGHEETVRQFFRRQLGSEVAERLVEPFTSGVYAGDPDQLSAVAAFPRVAGLEERYGSLFAGALQALRQRPQPSPAAIQPPPKRGQLGNLRQGLQQLPEALAQKLGDSLRLGWRALQLKRAGELYWVGFETPEGSRWVAARQVVLALPAYEAAALLQELNPPASQLLAEILYPPMAVVALAYPQEALPQPLRGFGHLIPRSQGLRTLGTIWASCLFPERAPQGYHSFLSFLGGATDAALARRRGIPPIPALSPEERAQIAHAELSQVLLTRRAEPVYLGERLWPRAIPQYTLGHRQRIAQVQAHLASQTPGIWVCANYLDGVALGDCVRRAEALAQQLLSQV |  |  |  |  |  | 81%
4 | CyPPO13 F337V: CyPPO13 (SEQ ID NO: 4) PPO variant (protein, Synthetic CyPPO13) MNPATPEPLNAEVVVIGAGISGLTLAWRLQQGLSARGGSPQAVLLAEASSRVGGCISTQSKDGYRWEEGPNSFTPTPALLNLIAEVGLTDQLVLADAKLPRYIYWEGALLPVPLSPAAALGSRLLSVGGKLRALQGLLGFVPPPPGHEETVRQFFRRQLGSEVAERLVEPFTSGVYAGDPDQLSAVAAFPRVAGLEERYGSLFAGALQALRQRPQPSPAAIQPPPKRGQLGNLRQGLQQLPEALAQKLGDSLRLGWRALQLKRAGELYWVGFETPEGSRWVAARQVVLALPAYEAAALLQELNPPASQLLAEILYPPVAVVALAYPQEALPQPLRGVGHLIPRSQGLRTLGTIWASCLFPERAPQGYHSFLSFLGGATDAALARRRGIPPIPALSPEERAQIAHAELSQVLLTRRAEPVYLGERLWPRAIPQYTLGHRQRIAQVQAHLASQTPGIWVCANYLDGVALGDCVRRAEALAQQLLSQV |  |  |  |  |  | 88%
5 | CyPPO13 A177L: CyPPO13 (SEQ ID NO: 4) PPO variant (protein, Synthetic CyPPO13) MNPATPEPLNAEVVVIGAGISGLTLAWRLQQGLSARGGSPQAVLLAEASSRVGGCISTQSKDGYRWEEGPNSFTPTPALLNLIAEVGLTDQLVLADAKLPRYIYWEGALLPVPLSPAAALGSRLLSVGGKLRALQGLLGFVPPPPGHEETVRQFFRRQLGSEVAERLVEPFTSGVYLGDPDQLSAVAAFPRVAGLEERYGSLFAGALQALRQRPQPSPAAIQPPPKRGQLGNLRQGLQQLPEALAQKLGDSLRLGWRALQLKRAGELYWVGFETPEGSRWVAARQVVLALPAYEAAALLQELNPPASQLLAEILYPPVAVVALAYPQEALPQPLRGFGHLIPRSQGLRTLGTIWASCLFPERAPQGYHSFLSFLGGATDAALARRRGIPPIPALSPEERAQIAHAELSQVLLTRRAEPVYLGERLWPRAIPQYTLGHRQRIAQVQAHLASQTPGIWVCANYLDGVALGDCVRRAEALAQQLLSQV |  |  |  |  |  | 97%
6 | CyPPO13 P316L + V318L: CyPPO13 (SEQ ID NO: 4) PPO variant (protein, Synthetic CyPPO13) MNPATPEPLNAEVVVIGAGISGLTLAWRLQQGLSARGGSPQAVLLAEASSRVGGCISTQSKDGYRWEEGPNSFTPTPALLNLIAEVGLTDQLVLADAKLPRYIYWEGALLPVPLSPAAALGSRLLSVGGKLRALQGLLGFVPPPPGHEETVRQFFRRQLGSEVAERLVEPFTSGVYAGDPDQLSAVAAFPRVAGLEERYGSLFAGALQALRQRPQPSPAAIQPPPKRGQLGNLRQGLQQLPEALAQKLGDSLRLGWRALQLKRAGELYWVGFETPEGSRWVAARQVVLALPAYEAAALLQELNPPASQLLAEILYLPLAVVALAYPQEALPQPLRGFGHLIPRSQGLRTLGTIWASCLFPERAPQGYHSFLSFLGGATDAALARRRGIPPIPALSPEERAQIAHAELSQVLLTRRAEPVYLGERLWPRAIPQYTLGHRQRIAQVQAHLASQTPGIWVCANYLDGVALGDCVRRAEALAQQLLSQV | +++ | ++ | − | + | + | 
7 | CyPPO13 I353T: CyPPO13 (SEQ ID NO: 4) PPO variant (protein, Synthetic CyPPO13) MNPATPEPLNAEVVVIGAGISGLTLAWRLQQGLSARGGSPQAVLLAEASSRVGGCISTQSKDGYRWEEGPNSFTPTPALLNLIAEVGLTDQLVLADAKLPRYIYWEGALLPVPLSPAAALGSRLLSVGGKLRALQGLLGFVPPPPGHEETVRQFFRRQLGSEVAERLVEPFTSGVYAGDPDQLSAVAAFPRVAGLEERYGSLFAGALQALRQRPQPSPAAIQPPPKRGQLGNLRQGLQQLPEALAQKLGDSLRLGWRALQLKRAGELYWVGFETPEGSRWVAARQVVLALPAYEAAALLQELNPPASQLLAEILYPPVAVVALAYPQEALPQPLRGFGHLIPRSQGLRTLGTTWASCLFPERAPQGYHSFLSFLGGATDAALARRRGIPPIPALSPEERAQIAHAELSQVLLTRRAEPVYLGERLWPRAIPQYTLGHRQRIAQVQAHLASQTPGIWVCANYLDGVALGDCVRRAEALAQQLLSQV |  |  |  |  |  | 62%
